{"source": "patent US20040002450A1", "about": "“Y17 - isolated molecules comprising epitopes containing sulfated moieties, antibodies to such epitopes, and uses thereof” (priority 2000, published 2004)", "molecules": {"B1": {"name": "Y1 scFv: fully human scFv clone binding platelets and myelogenous leukemia cells; SEQ ID NO: 25, heavy chain CDR3 SEQ ID NO: 8 (protein, listed as Homo sapiens)", "scFv": "MKYLLPTAAAGLLLLAAQPAMAEVQLVESGGGVVRPGGSLRLSCAASGFTFDDYGMSWVRQAPGKGLEWVSGINWNGGSTGYADSVKGRFTISRDNAKNSLYLQMNSLRAEDTAVYYCARMRAPVIWGQGTLVTVSRGGGGSGGGGSGGGGSSELTQDPAVSVALGQTVRITCQGDSLRSYYASWYQQKPGQAPVLVIYGKNNRPSGIPDRFSGSSSGNTASLTITGAQAEDEADYYCNSRDSSGNHVVFGGGTKLTVLGAAAEQKLISEEDLNGAA"}}, "key": {"washed platelets": {"system": "washed platelets", "experiment": "Ristocetin-induced agglutination of washed platelets after scFv preincubation", "assay_type": "cell-based, human", "conditions": "for % inhibition / % agglutination: washed platelets; for % inhibition: ristocetin; for % agglutination: ristocetin = 100%", "experimental": "Aggregation is determined in PRP due to the presence of thrombotic agents, while agglutination is determined in washed platelets. The effect of Y1 (scFv) on agglutination of washed platelets was tested at various concentrations of Y1. Platelets were pre-incubated with Y1 scFv, Y17 scFv, Y16-scFv, or a control TM-1 scFv for 4 min at 37° C. before being exposed to ristocetin, an inducer of platelet agglutination and aggregation.\nPlatelet concentrate in acid-citrate-dextrose (ACD) was obtained from a blood bank, platelets were isolated, washed once in buffer containing ACD and saline in a ratio of 1:7. The platelets were centrifuged at 800 g for 10 min after each wash and were resuspended in Tyrodes solution (2 mM MgCl2, 137 mM NaCl, 2.68 mM KCl, 3 mM NaH2PO4, 0.1% glucose, 5 mM Hepes and 0.35% albumin, pH 7.35) and count the number of cells.\nFor platelet aggregation studies, platelet rich plasma (PRP) and washed platelets were stirred at 500 rpm at 37° C. in whole blood Lumiaggregometer (Chronolog, Havertown, Pa.). The difference in light transmission through the platelet suspension and suspending medium was taken as 100% aggregation. The effect of Y1 on platelet aggregation was evaluated by addition of different concentration of Y1 before the addition of agonist, and the effect was recorded for four minutes.\nThe effect of Y17-scFv on vWF-dependent agglutination of platelets was tested at different concentrations of Y17."}, "platelet GPIbα [1]": {"system": "platelet GPIbα", "experiment": "Western blot/FACS of endoprotease-cleaved platelet GPIbα and glycocalicin", "assay_type": "binding, human", "conditions": "immunoblots and FACS", "text": "(§1) Immunoblotting and endoprotease cleavage techniques were used to identify the epitope for Y1 on the surface membrane of platelets.\n(§2) The enzyme O-Sialoglycoprotein endoprotease from Pasteurella haemolytica (Cedarlan CLE 100) selectively cleaves human platelet GPIb and specifically cleaves only proteins containing sialylated, O-linked glycans. […] This enzyme has been reported to cleave GPIb, which is heavily O-glycosylated, but not GPIIb-IIIa or other receptors on platelets. GPIbα was digested with O-Sialoglycoprotein endoprotease in order to further establish the binding of Y1 to the molecule.\n(§3) Mocarhagin [Sigma L4515a] is a cobra venom metalloproteinase that cleaves platelet GPIbα specifically at a single site between residues glu-282 and asp-283, thereby generating two stable products: a ˜45-kDa N-terminal fragment (His1-Glu282), which is released into the supernatant, and a membrane-bound ˜95 kDa C-terminal fragment.\n(§4) Cathepsin G (Sigma C4428), a neutrophil serine protease, cleaves glycocalicin at a first cleavage site between residues Leu-275 and Tyr-276 and at a second cleavage site between residues Val-296 and Lys-297. Cathepsin G treatment of glycocalicin generates two N-terminal fragments: a small N-terminal 42 kDa fragment (His1-Leu275), a large N-terminal 45 kDa N-terminal fragment (His1-Val-296), and corresponding ˜95 kDa C-terminal fragments. (FIG. 1).\n(§5) For mocarhagin digestion, 10^8 washed platelets in TS buffer (0.01 M Tris, 0.15 M sodium chloride, pH 7.4) containing 1 mM calcium chloride were treated with 12 μg/ml mocarhagin (final concentration) for 1 hour at 22° C. and digestion was stopped by adding EDTA to 0.01 M.\n(§6) 10^6 platelets in 0.1 M Tris buffer pH 7.4 containing 0.2% albumin and protease inhibitors (10 μM leupeptin, 0.24 mM PMSF) was incubated with 0.14 mg/ml O-Sialoglycoprotein endoprotease (final concentration) for 45 min at 37° C. and digestion was stopped by adding sample buffer and boiling. The sample buffer used contained 3% SDS, 12% glycerol, 50 mM Tris HCl, 2% β-mercaptoethanol, and 0.03% bromphenol blue.\n(§7) For mocarhagin digestion, glycocalicin in TS buffer containing 1 mM calcium chloride was incubated with 10 μg/ml mocarhagin (final concentration) for 1 hour at 22° C. and digestion was stopped by adding EDTA to 0.01 M.\n(§8) For cathepsin G digestion, glycocalicin in TS buffer containing 1 mM calcium chloride was incubated with 3.4 μg/ml cathepsin G (final concentration) for 4 hour at 22° C. and digestion was stopped by adding PMSF to 1 mM."}, "platelet GPIbα [2]": {"target": "T1, platelet GPIbα (Homo sapiens, UniProt P07359)", "T1 construct": "endogenous in cells; host or cells: washed human platelets (blood-bank platelet concentrate)", "experiment": "Western blot/FACS of endoprotease-cleaved platelet GPIbα and glycocalicin", "assay_type": "binding", "text": "as §1, §2, §3, §4, §5, §6, §7, §8"}}}
{"molecule": "B1", "values": [{"measurement": "effect on ristocetin-induced agglutination of washed platelets (in words)", "setting": "washed platelets; 4 μg/ml", "value": "No inhibition"}, {"measurement": "effect on ristocetin-induced agglutination of washed platelets (in words)", "setting": "washed platelets; 12.5 μg/ml", "value": "only partial inhibition"}, {"measurement": "effect on ristocetin-induced agglutination of washed platelets (in words)", "setting": "washed platelets; 25 μg/ml", "value": "inhibited agglutination"}, {"measurement": "% inhibition", "setting": "washed platelets; scFv 4 μg/ml", "value": 8, "unit": "%"}, {"measurement": "% agglutination", "setting": "washed platelets; scFv 4 μg/ml", "value": 92, "unit": "%"}, {"measurement": "% inhibition", "setting": "washed platelets; scFv 12.5 μg/ml", "value": 33, "unit": "%"}, {"measurement": "% agglutination", "setting": "washed platelets; scFv 12.5 μg/ml", "value": 67, "unit": "%"}, {"measurement": "% inhibition", "setting": "washed platelets; scFv 25 μg/ml", "value": 77, "unit": "%"}, {"measurement": "% agglutination", "setting": "washed platelets; scFv 25 μg/ml", "value": 23, "unit": "%"}, {"measurement": "binding to washed platelets after O-Sialoglycoprotein endoprotease", "setting": "platelet GPIbα [1]", "value": "abolishes binding"}, {"measurement": "binding to cathepsin G fragments of glycocalicin", "setting": "platelet GPIbα [2]; Western blot", "value": "bound to the larger N-terminal fragment (His 1-Val-296), but not to the smaller N-terminal fragment (His1-Leu275)"}, {"measurement": "binding after mocarhagin treatment of washed platelets", "setting": "platelet GPIbα [2]; Western blot of platelet lysates", "value": "binding of Y1 to the N-terminal ˜45 kDa tryptic fragment"}]}
